Here are results for 34 sequences from the supplement of paper PMC7877785.

± gives the uncertainty stated by the source.

This data set can be described thus: self-splicing fitness, log relative to wild type (ln ratio); higher = more splicing; Tetrahymena group I intron in knt gene, E. coli kanamycin selection, DiMSum; sequences stand for … in CUCUCU…GGAGGGAAAAGUUAUCAGGCAUGCACCUGGUAGCUAGUCUUUAAACCAAUAGAUUGCAUCGGUUUAAAAGGCAAGACCGUCAAAUUGCGGGAAAGGGGUCAACAGCCGUUCAGUACCAAGUCUCAGGGGAAACUUUGAGAUGGCCUUGCAAAGGGUAUGGUAAUAAGCUGACGGACAUGGUCCUAACCACGCAGCCAAGUCCUAAGUCAACAGAUCUUCUGUUGAUAUGGAUGCAGUUCACAGACUAAAUGUCGGUCGGGGAAGAUGUAUUCUUCUCAUAAGAUAUAGUCGGACCUCUCCUUAAUGGGAGCUAGCGGAUGAAGUGAUGCAACACUGGAGCCGCUGGGAACUAAUUUGUAUGCGAAAGUAUAUUGAUUAGUUUUGGAGUACUCGUGGUCG
Put shortly: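 The eight P1ex-region nucleotides of an intron in the knt kanamycin-resistance gene on pET-22b(+) were all randomised and the library put into E. coli BL21(DE3). Six replicate transformations were grown overnight at 37°C or 30°C on LB agar with or without 25 μg/mL kanamycin, together with 100 μg/mL carbenicillin, 50 μM IPTG and 0.2% rhamnose. Colonies were pooled and amplicon-sequenced on an Illumina HiSeq 2500. Fitness from DiMSum is the error-weighted combination of wild-type-normalised replicate fold changes, kanamycin over none.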

Turning to AAGAAGCAAUAUUACGGAAG, the “self-splicing fitness (ln)” value reads like this: (30 °C) -2.77 ± 0.094; (37 °C) -1.68 ± 0.11.
As to AAUUAGCAAUAUUACGCUUG, the “self-splicing fitness (ln)” value (30 °C) is -0.701 ± 0.07 and the “self-splicing fitness (ln)” value (37 °C) amounted to 0.227 ± 0.095.
Consider ACAGAGCAAUAUUACGCGGU, for which the “self-splicing fitness (ln)” value is, setting by setting: (30 °C) -4.3 ± 0.41; (37 °C) -2.43 ± 0.28.
Consider AUCAAGCAAUAUUACGUACU, for which the “self-splicing fitness (ln)” value runs as follows: (30 °C) -0.173 ± 0.057; (37 °C) 0.183 ± 0.066.
For ACAGAGCAAUAUUACGCACG, the “self-splicing fitness (ln)” value is, setting by setting: (30 °C) -3.11 ± 0.22; (37 °C) -3.43 ± 0.25.
For the sequence UAAAAGCAAUAUUACGCCUU, the “self-splicing fitness (ln)” value was -1.53 ± 0.12 (30 °C) and -0.42 ± 0.12 (37 °C).
Consider AAGUAGCAAUAUUACGCUGA, for which the “self-splicing fitness (ln)” value (30 °C) was -1.36 ± 0.15 and the “self-splicing fitness (ln)” value (37 °C) is -0.457 ± 0.14.
AACCAGCAAUAUUACGCGUA: the “self-splicing fitness (ln)” value is -0.386 ± 0.063 (30 °C) and -0.313 ± 0.073 (37 °C).
As to GCGAAGCAAUAUUACGUCCG, the “self-splicing fitness (ln)” value is, setting by setting: (30 °C) -1.24 ± 0.14; (37 °C) -0.577 ± 0.2.
Turning to UUUUAGCAAUAUUACGACUC, the “self-splicing fitness (ln)” value (30 °C) is -2.56 ± 0.46.
As for CUGCAGCAAUAUUACGCGCA, the “self-splicing fitness (ln)” value is -3.37 ± 0.15 (30 °C) and -2.13 ± 0.15 (37 °C).
As for UCCCAGCAAUAUUACGAGUC, the “self-splicing fitness (ln)” value reads like this: (30 °C) -3.66 ± 0.18; (37 °C) -1.56 ± 0.17.
On to CUUAAGCAAUAUUACGGCCA, for which, under “30 °C”, the “self-splicing fitness (ln)” value was -2.95 ± 0.44.
In the case of AUAAAGCAAUAUUACGUCUC, the “self-splicing fitness (ln)” value was -1.4 ± 0.093 (30 °C) and -0.541 ± 0.13 (37 °C).
For the sequence CCUCAGCAAUAUUACGCGGG, the “self-splicing fitness (ln)” value by setting is: (30 °C) -4.06 ± 0.28; (37 °C) -2.34 ± 0.29.
With CGUCAGCAAUAUUACGACCG, the “self-splicing fitness (ln)” value is, setting by setting: (30 °C) -0.855 ± 0.098; (37 °C) -0.475 ± 0.12.
With CAAAAGCAAUAUUACGUUAC, the “self-splicing fitness (ln)” value (30 °C) is -3.12 ± 0.22 and the “self-splicing fitness (ln)” value (37 °C) is -2.33 ± 0.23.
AAGCAGCAAUAUUACGAUGU: the “self-splicing fitness (ln)” value is, setting by setting: (30 °C) -1.3 ± 0.06; (37 °C) -0.566 ± 0.078.
Take CAGCAGCAAUAUUACGCGAU: the “self-splicing fitness (ln)” value runs as follows: (30 °C) -3.91 ± 0.22; (37 °C) -1.83 ± 0.17.
Consider CACGAGCAAUAUUACGAGCG, for which the “self-splicing fitness (ln)” value (30 °C) is -0.857 ± 0.086 and the “self-splicing fitness (ln)” value (37 °C) was -1.33 ± 0.1.
The corresponding values for UCCCAGCAAUAUUACGCAGG are -3.88 ± 0.29 and -3.54 ± 0.26.
On the same counts, the results for UUUGAGCAAUAUUACGCGUC are -2.03 ± 0.22 and -2.49 ± 0.26.
Consider CAGAAGCAAUAUUACGUUUA, for which the “self-splicing fitness (ln)” value runs as follows: (30 °C) -3.13 ± 0.18; (37 °C) -1.95 ± 0.12.
As for CGCCAGCAAUAUUACGAGAU, the “self-splicing fitness (ln)” value was -3.69 ± 0.18 (30 °C) and -2.04 ± 0.17 (37 °C).
On to GUAGAGCAAUAUUACGCAAC, for which the “self-splicing fitness (ln)” value was -1.79 ± 0.24 (30 °C) and -0.94 ± 0.39 (37 °C).
Regarding GGGAAGCAAUAUUACGGGCU, the “self-splicing fitness (ln)” value (30 °C) was -0.942 ± 0.12 and the “self-splicing fitness (ln)” value (37 °C) is -0.846 ± 0.12.
On the same counts, the results for UCCGAGCAAUAUUACGUUUA are -2.86 ± 0.48 and -1.71 ± 0.23.
The corresponding values for GAUCAGCAAUAUUACGGUAC are -0.39 ± 0.11 and -0.884 ± 0.12.
As to UCAAAGCAAUAUUACGGGGC, the “self-splicing fitness (ln)” value is -2.18 ± 0.16 (30 °C) and -2.14 ± 0.19 (37 °C).
On the same counts, the results for UGGCAGCAAUAUUACGACUU are 0.0485 ± 0.093 and 0.468 ± 0.1.
On the same counts, the results for CGGUAGCAAUAUUACGGCUG are -4.13 ± 0.25 and -1.05 ± 0.16.
For UUCCAGCAAUAUUACGGACG, the “self-splicing fitness (ln)” value was -0.4 ± 0.048 (30 °C) and 0.421 ± 0.077 (37 °C).
On the same counts, the results for UUAAAGCAAUAUUACGUAAA are -1.16 ± 0.12 and -0.0909 ± 0.12.
On the same counts, the results for AUGGAGCAAUAUUACGGCUA are -0.572 ± 0.23 and -0.853 ± 0.26.
